According to patent US20210177983A1:

Molecular target: TNF-α (UniProt P01375)
Test: cell-based or functional assay

UniProt P01375, sequence (P01375 77-233 limits assumed): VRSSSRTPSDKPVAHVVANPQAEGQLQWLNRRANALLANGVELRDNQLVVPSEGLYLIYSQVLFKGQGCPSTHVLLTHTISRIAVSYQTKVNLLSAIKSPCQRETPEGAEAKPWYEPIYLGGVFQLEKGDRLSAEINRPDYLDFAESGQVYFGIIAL

- IC50 of inhibition of activation of the SEAP reporter gene in HEK-Blue TNF-α cells (235 pM TNF-α): 51 pM
Substance: TNF-R2 scCLCH1-Fc (Fc fusion)
